The values below come from publication PMC12851578.

Several values for one entry are separate records, joined by “and”; a condition that tells them apart may be missing. Equal values may be shown once.

The target in this experiment is actin purified from muscle (F-actin) (Bos taurus (ground beef)) (UniProt P68138). Description: co-sedimentation.

With “Lfat1 ABD [change], recombinant (from UniProt Q5ZVQ3 138-355) (domain or fragment)”, the Kd (in general, a measure of binding affinity in units of concentration) is 19.1 µM and 16.3 µM and 63.7 µM.
